Experimental data: patent US20250011379

What was measured:
[1] = target: human C4b (UniProt P0C0L5)
[2] = target: soluble human C3b (UniProt P01024)
soluble human C3b, sequence (P01024 whole entry, looked up, tested part not stated): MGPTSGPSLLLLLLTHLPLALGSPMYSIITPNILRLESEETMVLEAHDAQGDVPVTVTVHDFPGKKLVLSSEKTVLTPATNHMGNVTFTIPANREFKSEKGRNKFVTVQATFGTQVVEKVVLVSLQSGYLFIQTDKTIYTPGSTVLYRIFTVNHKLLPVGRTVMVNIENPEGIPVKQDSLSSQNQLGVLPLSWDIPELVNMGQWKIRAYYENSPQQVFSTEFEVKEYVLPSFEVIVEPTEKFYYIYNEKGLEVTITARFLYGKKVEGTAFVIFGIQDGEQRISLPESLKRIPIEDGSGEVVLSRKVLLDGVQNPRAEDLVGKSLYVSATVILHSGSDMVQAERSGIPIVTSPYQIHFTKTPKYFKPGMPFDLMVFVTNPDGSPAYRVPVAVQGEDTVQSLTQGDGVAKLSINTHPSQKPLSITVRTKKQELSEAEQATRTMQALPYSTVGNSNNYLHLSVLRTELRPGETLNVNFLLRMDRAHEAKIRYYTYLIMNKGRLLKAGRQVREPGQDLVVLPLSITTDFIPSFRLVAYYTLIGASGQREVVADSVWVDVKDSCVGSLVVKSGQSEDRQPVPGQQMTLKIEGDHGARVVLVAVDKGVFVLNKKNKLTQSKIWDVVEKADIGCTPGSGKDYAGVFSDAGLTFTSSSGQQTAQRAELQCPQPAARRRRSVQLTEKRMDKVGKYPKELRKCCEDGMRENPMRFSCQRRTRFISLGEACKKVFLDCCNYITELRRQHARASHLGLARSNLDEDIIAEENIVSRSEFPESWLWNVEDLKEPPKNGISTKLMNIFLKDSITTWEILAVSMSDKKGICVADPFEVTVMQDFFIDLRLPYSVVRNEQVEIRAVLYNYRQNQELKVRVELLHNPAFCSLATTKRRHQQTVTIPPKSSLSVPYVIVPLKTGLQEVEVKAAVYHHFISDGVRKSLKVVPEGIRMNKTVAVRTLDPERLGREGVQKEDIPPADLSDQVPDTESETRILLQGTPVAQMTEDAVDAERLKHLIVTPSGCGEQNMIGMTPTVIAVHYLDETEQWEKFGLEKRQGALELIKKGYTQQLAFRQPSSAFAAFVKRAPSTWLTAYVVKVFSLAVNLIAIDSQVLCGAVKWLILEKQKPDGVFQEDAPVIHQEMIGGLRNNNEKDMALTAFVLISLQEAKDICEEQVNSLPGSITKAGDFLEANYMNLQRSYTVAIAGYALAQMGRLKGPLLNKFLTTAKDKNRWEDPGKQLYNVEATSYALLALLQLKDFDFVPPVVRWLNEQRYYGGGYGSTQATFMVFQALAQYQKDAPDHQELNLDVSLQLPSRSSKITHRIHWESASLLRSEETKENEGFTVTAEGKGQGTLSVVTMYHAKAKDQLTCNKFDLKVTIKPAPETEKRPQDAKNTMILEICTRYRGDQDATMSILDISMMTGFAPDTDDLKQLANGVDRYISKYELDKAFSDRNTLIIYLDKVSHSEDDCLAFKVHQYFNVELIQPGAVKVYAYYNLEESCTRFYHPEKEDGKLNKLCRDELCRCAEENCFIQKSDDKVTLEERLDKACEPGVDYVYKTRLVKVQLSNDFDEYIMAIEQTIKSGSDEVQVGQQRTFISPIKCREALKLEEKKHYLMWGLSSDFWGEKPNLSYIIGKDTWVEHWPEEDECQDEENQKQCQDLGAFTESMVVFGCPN

human C4b, sequence (P0C0L5 whole entry, looked up): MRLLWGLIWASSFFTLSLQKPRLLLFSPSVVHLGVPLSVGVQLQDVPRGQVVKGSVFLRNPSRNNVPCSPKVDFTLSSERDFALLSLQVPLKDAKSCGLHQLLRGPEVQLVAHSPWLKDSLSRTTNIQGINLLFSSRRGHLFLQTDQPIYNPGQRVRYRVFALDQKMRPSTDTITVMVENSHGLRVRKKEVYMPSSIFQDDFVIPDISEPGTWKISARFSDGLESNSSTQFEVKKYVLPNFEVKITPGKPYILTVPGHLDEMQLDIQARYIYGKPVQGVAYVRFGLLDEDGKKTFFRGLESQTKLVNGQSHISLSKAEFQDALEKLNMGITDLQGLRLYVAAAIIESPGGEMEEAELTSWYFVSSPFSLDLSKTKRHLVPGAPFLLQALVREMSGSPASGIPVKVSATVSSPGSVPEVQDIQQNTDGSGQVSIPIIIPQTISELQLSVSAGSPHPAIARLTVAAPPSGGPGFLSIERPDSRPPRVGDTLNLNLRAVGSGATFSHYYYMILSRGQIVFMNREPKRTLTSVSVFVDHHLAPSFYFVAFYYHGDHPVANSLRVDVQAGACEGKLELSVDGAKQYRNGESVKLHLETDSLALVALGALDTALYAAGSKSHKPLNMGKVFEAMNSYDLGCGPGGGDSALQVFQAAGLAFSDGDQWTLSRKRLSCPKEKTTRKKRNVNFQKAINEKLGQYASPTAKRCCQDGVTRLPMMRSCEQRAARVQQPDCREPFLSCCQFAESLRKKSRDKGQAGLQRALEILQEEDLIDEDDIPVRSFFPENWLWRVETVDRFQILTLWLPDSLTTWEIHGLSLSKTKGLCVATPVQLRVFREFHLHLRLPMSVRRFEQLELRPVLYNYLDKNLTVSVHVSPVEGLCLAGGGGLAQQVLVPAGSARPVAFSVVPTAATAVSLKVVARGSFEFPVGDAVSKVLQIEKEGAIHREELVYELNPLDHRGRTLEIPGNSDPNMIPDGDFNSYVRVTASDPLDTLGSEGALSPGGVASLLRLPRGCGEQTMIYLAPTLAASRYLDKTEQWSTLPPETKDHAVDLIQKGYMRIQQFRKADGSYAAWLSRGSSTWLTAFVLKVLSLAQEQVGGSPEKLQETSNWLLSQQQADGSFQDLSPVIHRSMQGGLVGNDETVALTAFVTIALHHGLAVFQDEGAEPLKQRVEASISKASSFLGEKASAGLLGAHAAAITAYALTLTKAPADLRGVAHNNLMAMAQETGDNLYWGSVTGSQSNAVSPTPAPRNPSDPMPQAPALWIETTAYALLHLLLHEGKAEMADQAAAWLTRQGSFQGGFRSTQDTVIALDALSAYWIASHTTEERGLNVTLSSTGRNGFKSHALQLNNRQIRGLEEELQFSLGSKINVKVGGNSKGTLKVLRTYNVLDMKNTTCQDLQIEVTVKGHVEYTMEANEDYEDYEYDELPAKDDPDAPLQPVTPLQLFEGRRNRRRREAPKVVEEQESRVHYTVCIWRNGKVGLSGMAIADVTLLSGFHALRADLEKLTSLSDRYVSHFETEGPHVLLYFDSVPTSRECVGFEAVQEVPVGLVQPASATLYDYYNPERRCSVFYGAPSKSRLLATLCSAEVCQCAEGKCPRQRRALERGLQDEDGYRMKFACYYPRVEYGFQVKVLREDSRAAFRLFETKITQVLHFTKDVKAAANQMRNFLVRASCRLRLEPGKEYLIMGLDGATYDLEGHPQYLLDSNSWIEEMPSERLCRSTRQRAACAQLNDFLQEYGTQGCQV
Const. No. 80: HSA-GGSSGG-hCFI; Δ(1-KVTYTS-6)(SEQ ID NO: 35) > RSPSASDLP (SEQ ID NO: 36), sequence (chain): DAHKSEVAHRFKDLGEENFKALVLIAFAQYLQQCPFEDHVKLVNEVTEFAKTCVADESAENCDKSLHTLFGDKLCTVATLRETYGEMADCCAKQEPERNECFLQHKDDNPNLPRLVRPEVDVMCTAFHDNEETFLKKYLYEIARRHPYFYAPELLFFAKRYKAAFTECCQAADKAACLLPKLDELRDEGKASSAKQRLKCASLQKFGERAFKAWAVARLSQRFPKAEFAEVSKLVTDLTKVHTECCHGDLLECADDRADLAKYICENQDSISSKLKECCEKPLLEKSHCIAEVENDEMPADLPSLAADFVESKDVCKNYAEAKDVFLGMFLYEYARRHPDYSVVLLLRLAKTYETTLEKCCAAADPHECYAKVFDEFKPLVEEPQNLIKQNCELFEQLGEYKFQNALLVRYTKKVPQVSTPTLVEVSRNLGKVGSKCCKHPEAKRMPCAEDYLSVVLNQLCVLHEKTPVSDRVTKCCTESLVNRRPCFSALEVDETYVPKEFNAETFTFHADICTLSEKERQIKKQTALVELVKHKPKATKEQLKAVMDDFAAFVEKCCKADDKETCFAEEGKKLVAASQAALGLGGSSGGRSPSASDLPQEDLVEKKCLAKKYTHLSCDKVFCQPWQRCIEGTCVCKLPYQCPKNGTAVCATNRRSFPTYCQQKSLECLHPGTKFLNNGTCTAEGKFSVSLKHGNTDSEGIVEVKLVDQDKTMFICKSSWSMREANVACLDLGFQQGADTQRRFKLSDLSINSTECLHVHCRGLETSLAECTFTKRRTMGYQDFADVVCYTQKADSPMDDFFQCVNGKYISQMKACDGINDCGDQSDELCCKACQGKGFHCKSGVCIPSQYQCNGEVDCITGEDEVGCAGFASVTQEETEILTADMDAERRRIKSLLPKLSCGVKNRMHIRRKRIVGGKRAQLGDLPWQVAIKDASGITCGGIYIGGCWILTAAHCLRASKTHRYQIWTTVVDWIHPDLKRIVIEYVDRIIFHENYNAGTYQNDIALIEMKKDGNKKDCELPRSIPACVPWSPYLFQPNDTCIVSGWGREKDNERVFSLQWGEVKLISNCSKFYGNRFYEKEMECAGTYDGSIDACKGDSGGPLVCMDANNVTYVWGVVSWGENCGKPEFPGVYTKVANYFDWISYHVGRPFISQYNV

| Substance | C4c ref fold [1] [fold] | iC3b ref fold [2] [fold] |
| --- | --- | --- |
| Const. No. 54: HSA-GGSSGG-hCFI; D395K | 1.61 | 2.06 |
| Const. No. 22: HSA-GGSSGG-hCFI; R62A | 1.07 | 0.23 |
| Const. No. 76: HSA-GGSSGG-hCFI; H383K; D385N; K387S; R388Q; E392Q; Y393T; D395K; K419M; D420H; G421T; N422G; D425E | 4.46 | 2.11 |
| Const. No. 64: HSA-GGSSGG-hCFI-GGSSGG-hCR1; CCP8; CCP9; CCP10 | 4.11 | 0.06 |
| Const. No. 79: HSA-GGSSGG-hCFI; Q69H; L73F; G79E; T80I; L83S; N84H | 3.36 | 1.63 |
| Const. No. 71: HSA-GGSSGGSSGG-Gorilla CFI | 0.09 | 0.07 |
| Const. No. 37: HSA-GGSSGG-hCFI; K51R; N52A; A55P; T59M; R61G; F64Y | 3.59 | 1.12 |
| Const. No. 58: HSA-GGSSGG-hCFI; D395A; E416A; D425A | 0.06 | 0.77 |
| Const. No. 20: HSA-GGSSGG-hCFI; T495F; Y496L; S499G; I500K | 0.05 | 0 |
| Const. No. 35: HSA-GGSSGG-hCFI; R371E | 2.02 | 0.04 |
| Const. No. 70: HSA-GGSSGGSSGG-Rat CFI | 4.12 | 0.94 |
| Const. No. 16: HSA-GGSSGG-hCFI; S499V | 1.24 | 0.18 |
| Const. No. 31: HSA-GGSSGG-hCFI; N402K | 1.14 | 1.53 |
| Const. No. 60: HSA-GGSSGG-hCFI; K368D | 1.39 | 0.03 |
| Const. No. 14: HSA-GGSSGG-hCFI; S499A | 0.45 | 1.36 |
| Const. No. 93: HSA-GGSSGG-hCFI; T377A | 2.36 | 1.09 |
| Const. No. 3: HSA-GGSSGG-hCFI; L307F | 3.48 | 1.01 |
| Const. No. 72: HSA-GGSSGGSSGG-Cyno CFI | 0.34 | 3.17 |
| Const. No. 46: HSA-GGSSGG-hCFI; R484K | 0.76 | 1.21 |
| Const. No. 11: HSA-GGSSGG-hCFI; Δ(D497) | -0.02 | -0.01 |
| Const. No. 41: HSA-GGSSGG-hCFI; L73F | 2.36 | 0.9 |
| Const. No. 45: HSA-GGSSGG-hCFI; R484A | 1.3 | 0.7 |
| Const. No. 17: HSA-GGSSGG-hCFI; Y496L | 1.54 | 0.44 |
| Const. No. 24: HSA-GGSSGG-hCFI; R62L | 0.59 | 0.19 |
| Const. No. 74: HSA-GGSSGGSSGG-Bovine CFI | 2.19 | 1.67 |
| Const. No. 91: HSA-GGSSGG-hCFI; T377A; E457G; N531G | 4.59 | 1.7 |
| Const. No. 81: HSA-GGSSGG-hCFI; M186E; G187L; Y188S; Q189N; D190G; F191L; D193G | 3.31 | 0.95 |

| Substance | C4c ref fold [1] [fold] | iC3b ref fold [2] [fold] |
| --- | --- | --- |
| Const. No. 26: HSA-GGSSGG-hCFI; E401K | 1.92 | 2.37 |
| Const. No. 18: HSA-GGSSGG-hCFI; S499G; I500K | 0.08 | 0.16 |
| Const. No. 68: HSA-GGSSGG-hCFI-GGSSGG-hCR1; CCP1; CCP2; CCP3-GGSSGG-hCR1; CCP15; CCP16; CCP17 | 3.75 | 0.06 |
| Const. No. 44: HSA-GGSSGG-hCFI; Δ(275-CAGFASVAQE-284)(SEQ ID NO: 31) > CEEDRQQNIPKGLARSAQGEAEIETE (SEQ ID NO: 32) + GGSSGG (SEQ ID NO: 6) + CR1(ccp15-17) | 3.47 | 0.03 |
| Const. No. 51: HSA-GGSSGG-hCFI; E416R | 1.17 | 1.87 |
| Const. No. 77: HSA-GGSSGG-hCFI; H383K; R388Q; E392Q; Y393T; K419M | 3.81 | 1.21 |
| Const. No. 8: HSA-GGSSGG-hCFI; P433G | 0.39 | 0.14 |
| Const. No. 5: HSA-GGSSGG-hCFI; L307W | 3.89 | 0.79 |
| Const. No. 57: HSA-GGSSGG-hCFI; D395A; E416A | 0.06 | 0.76 |
| Const. No. 36: HSA-GGSSGG-hCFI; A342R | 2.08 | 1.73 |
| Const. No. 9: HSA-GGSSGG-hCFI; P433F | 0.05 | 0.07 |
| Const. No. 92: HSA-GGSSGG-hCFI; N422A | 1.52 | 0.72 |
| Const. No. 80: HSA-GGSSGG-hCFI; Δ(1-KVTYTS-6)(SEQ ID NO: 35) > RSPSASDLP (SEQ ID NO: 36) | 3.07 | 0.91 |
| Const. No. 43: HSA-GGSSGG-hCFI; Δ(275-CAGFASVAQE-284)(SEQ ID NO: 31) > CEEDRQQNIPKGLARSAQGEAEIETE (SEQ ID NO: 32) | 1.54 | 0.89 |
| Const. No. 53: HSA-GGSSGG-hCFI; D395G | 0.8 | 1.52 |
| Const. No. 75: HSA-GGSSGGSSGG-Alligator CFI | 0.12 | -0.03 |
| Const. No. 2: HSA-GGSSGG-hCFI; F559H | 0.58 | 1.73 |
| Const. No. 49: HSA-GGSSGG-hCFI; Δ(V565) > VY | 1.47 | 0.15 |
| Const. No. 23: HSA-GGSSGG-hCFI; R62E | 0.1 | 0.04 |
| Const. No. 30: HSA-GGSSGG-hCFI; N402G | 0.73 | 1.44 |
| Const. No. 34: HSA-GGSSGG-hCFI; H554K | 2.62 | 2.11 |
| Const. No. 4: HSA-GGSSGG-hCFI; L307H | 3.55 | 0.89 |
| Const. No. 15: HSA-GGSSGG-hCFI; S499K | 1.98 | 0.67 |
| Const. No. 32: HSA-GGSSGG-hCFI; N402R | 0.98 | 1.47 |
| Const. No. 39: HSA-GGSSGG-hCFI; A55P | 2.83 | 1.1 |
| Const. No. 28: HSA-GGSSGG-hCFI; E401A | 0.86 | 1.87 |
| Const. No. 56: HSA-GGSSGG-hCFI; D395A; D425A | 0.65 | 1.77 |

| Substance | C4c ref fold [1] [fold] | iC3b ref fold [2] [fold] |
| --- | --- | --- |
| Const. No. 38: HSA-GGSSGG-hCFI; N52A | 2.93 | 0.72 |
| Const. No. 89: HSA-GGSSGG-hCFI; T377G; E457G; N531G-GGSSGG-hCR1; CCP15; CCP16; CCP17; hFH; CCP4-GGGGGGGGGGGG-hFH; CCP19; CCP20 | 3.21 | 0.05 |
| Const. No. 55: HSA-GGSSGG-hCFI; D395R | 1.38 | 1.85 |
| Const. No. 1: HSA-GGSSGG-hCFI; F559W | 1.08 | 1.39 |
| Const. No. 29: HSA-GGSSGG-hCFI; E401F | 0.5 | 1.64 |
| Const. No. 12: HSA-GGSSGG-hCFI; Δ(Y496; D497) | 0.9 | 0.18 |
| Const. No. 27: HSA-GGSSGG-hCFI; E401R | 2.93 | 2.12 |
| Const. No. 78: HSA-GGSSGG-hCFI; K51D; T59E; R61D | -0.24 | 0 |
| Const. No. 7: HSA-GGSSGG-hCFI; P433A | 0.81 | 0.8 |
| Const. No. 42: HSA-GGSSGG-hCFI; L73D | 2.33 | 0.08 |
| Const. No. 50: HSA-GGSSGG-hCFI; E416K | 1.23 | 1.89 |
| Const. No. 10: HSA-GGSSGG-hCFI; Δ(Y496) | 0.02 | 0.03 |
| Const. No. 47: HSA-GGSSGG-hCFI; R484E | 0.93 | 0.35 |
| Const. No. 48: HSA-GGSSGG-hCFI; Δ(V565) > VG | 0.67 | 0 |
| Const. No. 33: HSA-GGSSGG-hCFI; H554F | 0.55 | 1 |
| Const. No. 25: HSA-GGSSGG-hCFI; R62H | 0.74 | 0.29 |
| Const. No. 40: HSA-GGSSGG-hCFI; T59E | 2.17 | 0.68 |
| Const. No. 19: HSA-GGSSGG-hCFI; S499A; I500K | -0.05 | 0.02 |
| Const. No. 59: HSA-GGSSGG-hCFI; N402D | 1.66 | 0.74 |
| Const. No. 13: HSA-GGSSGG-hCFI; S499G | 0.72 | 0.34 |
| Const. No. 95: HSA linked with CFI (CFI-HSA), wild type | 1 | 1 |
| Const. No. 21: HSA-GGSSGG-hCFI; K423R | 1.44 | 0.55 |
| Const. No. 6: HSA-GGSSGG-hCFI; L307Y | 2.98 | 0.63 |
| Const. No. 67: HSA-GGSSGG-hCFI-GGSSGG-hCR1; CCP1; CCP2; CCP3; CCP4 | 3.2 | -0.01 |
| Const. No. 73: HSA-GGSSGGSSGG-Chimp CFI | -0.03 | 0.08 |
| Const. No. 52: HSA-GGSSGG-hCFI; D395A | 0.78 | 1.55 |
